# Measurements reported in patent US9958461B2, “Detection of protein to protein interactions” (THE GOVERNING COUNCIL OF THE UNIVERSITY OF TORONTO, priority 2013, dated 2018).
# B1: LYN (protein, UniProt P07948 2-512, looked up)
# Tyrosine-protein kinase Lyn: GCIKSKGKDSLSDDGVDLKTQPVRNTERTIYVRDPTSNKQQRPVPESQLLPGQRFQTKDPEEQGDIVVALYPYDGIHPDDLSFKKGEKMKVLEEHGEWWKAKSLLTKKEGFIPSNYVAKLNTLETEEWFFKDITRKDAERQLLAPGNSAGAFLIRESETLKGSFSLSVRDFDPVHGDVIKHYKIRSLDNGGYYISPRITFPCISDMIKHYQKQADGLCRRLEKACISPKPQKPWDKDAWEIPRESIKLVKRLGAGQFGEVWMGYYNNSTKVAVKTLKPGTMSVQAFLEEANLMKTLQHDKLVRLYAVVTREEPIYIITEYMAKGSLLDFLKSDEGGKVLLPKLIDFSAQIAEGMAYIERKNYIHRDLRAANVLVSESLMCKIADFGLARVIEDNEYTAREGAKFPIKWTAPEAINFGCFTIKSDVWSFGILLYEIVTYGKIPYPGRTNADVMTALSQGYRMPRVENCPDELYDIMKMCWKEKAEERPTFDYLQSVLDDFYTATEGQYQQQP
# B2: SLA2 (protein, UniProt Q9H6Q3 2-261, looked up)
# Src-like-adapter 2: GSLPSRRKSLPSPSLSSSVQGQGPVTMEAERSKATAVALGSFPAGGPAELSLRLGEPLTIVSEDGDWWTVLSEVSGREYNIPSVHVAKVSHGWLYEGLSREKAEELLLLPGNPGGAFLIRESQTRRGSYSLSVRLSRPASWDRIRHYRIHCLDNGWLYISPRLTFPSLQALVDHYSELADDICCLLKEPCVLQRAGPLPGKDIPLPVTVQRTPLNWKELDSSLLFSEAATGEESLLSEGLRESLSFYISLNDEAVSLDDA
# B3: WASL (protein, UniProt O00401 2-505, looked up)
# Actin nucleation-promoting …: SSVQQQPPPPRRVTNVGSLLLTPQENESLFTFLGKKCVTMSSAVVQLYAADRNCMWSKKCSGVACLVKDNPQRSYFLRIFDIKDGKLLWEQELYNNFVYNSPRGYFHTFAGDTCQVALNFANEEEAKKFRKAVTDLLGRRQRKSEKRRDPPNGPNLPMATVDIKNPEITTNRFYGPQVNNISHTKEKKKGKAKKKRLTKADIGTPSNFQHIGHVGWDPNTGFDLNNLDPELKNLFDMCGISEAQLKDRETSKVIYDFIEKTGGVEAVKNELRRQAPPPPPPSRGGPPPPPPPPHNSGPPPPPARGRGAPPPPPSRAPTAAPPPPPPSRPSVAVPPPPPNRMYPPPPPALPSSAPSGPPPPPPSVLGVGPVAPPPPPPPPPPPGPPPPPGLPSDGDHQVPTTAGNKAALLDQIREGAQLKKVEQNSRPVSCSGRDALLDQIRQGIQLKSVADGQESTPPTPAPTSGIVGALMEVMQKRSKAIHSSDEDEDEDDEEDFEDDDEWED
# B4: ANKS1A (protein, UniProt Q92625 2-1134, looked up)
# Ankyrin repeat and SAM …: GKEQELLEAARTGHLPAVEKLLSGKRLSSGFGGGGGGGSGGGGGGSGGGGGGLGSSSHPLSSLLSMWRGPNVNCVDSTGYTPLHHAALNGHKDVVEVLLRNDALTNVADSKGCYPLHLAAWKGDAQIVRLLIHQGPSHTRVNEQNNDNETALHCAAQYGHTEVVKVLLEELTDPTMRNNKFETPLDLAALYGRLEVVKMLLNAHPNLLSCNTKKHTPLHLAARNGHKAVVQVLLDAGMDSNYQTEMGSALHEAALFGKTDVVQILLAAGTDVNIKDNHGLTALDTVRELPSQKSQQIAALIEDHMTGKRSTKEVDKTPPPQPPLISSMDSISQKSQGDVEKAVTELIIDFDANAEEEGPYEALYNAISCHSLDSMASGRSSDQDSTNKEAEAAGVKPAGVRPRERPPPPAKPPPDEEEEDHIDKKYFPLTASEVLSMRPRIHGSAAREEDEHPYELLLTAETKKVVLVDGKTKDHRRSSSSRSQDSAEGQDGQVPEQFSGLLHGSSPVCEVGQDPFQLLCTAGQSHPDGSPQQGACHKASMQLEETGVHAPGASQPSALDQSKRVGYLTGLPTTNSRSHPETLTHTASPHPGGAEEGDRSGARSRAPPTSKPKAELKLSRSLSKSDSDLLTCSPTEDATMGSRSESLSNCSIGKKRLEKSPSFASEWDEIEKIMSSIGEGIDFSQERQKISGLRTLEQSVGEWLESIGLQQYESKLLLNGFDDVHFLGSNVMEEQDLRDIGISDPQHRRKLLQAARSLPKVKALGYDGNSPPSVPSWLDSLGLQDYVHSFLSSGYSSIDTVKNLWELELVNVLKVQLLGHRKRIIASLADRPYEEPPQKPPRFSQLRCQDLLSQTSSPLSQNDSCTGRSADLLLPPGDTGRRRHDSLHDPAAPSRAERFRIQEEHREAKLTLRPPSLAAPYAPVQSWQHQPEKLIFESCGYEANYLGSMLIKDLRGTESTQDACAKMRKSTEHMKKIPTIILSITYKGVKFIDASNKNVIAEHEIRNISCAAQDPEDLCTFAYITKDLQTSHHYCHVFSTVDVNLTYEIILTLGQAFEVAYQLALQAQKSRATGASAAEMIETKSSKPVPKPRVGVRKSALEPPDMDQDAQSHASVSWVVDPKPDSKRSLSTN
# B5: TXN (protein, UniProt P10599 2-105, looked up)
# Thioredoxin: VKQIESKTAFQEALDAAGDKLVVVDFSATWCGPCKMIKPFFHSLSEKYSNVIFLEVDVDDCQDVASECEVKCMPTFQFFKKGQKVGEFSGANKEKLEATINELV
# B6: MED28 (protein, UniProt Q9H204 1-178, looked up)
# Mediator of RNA polymerase II …: MAAPLGGMFSGQPPGPPQAPPGLPGQASLLQAAPGAPRPSSSTLVDELESSFEACFASLVSQDYVNGTDQEEIRTGVDQCIQKFLDIARQTECFFLQKRLQLSVQKPEQVIKEDVSELRNELQRKDALVQKHLTKLRHWQQVLEDINVQHKKPADIPQGSLAYLEQASANIPAPLKPT
# B7: BCAR3 (protein, UniProt O75815 2-825, looked up)
# Breast cancer anti-estrogen …: AAGKFASLPRNMPVNHQFPLASSMDLLSSRSPLAEHRPDAYQDVSIHGTLPRKKKGPPPIRSCDDFSHMGTLPHSKSPRQNSPVTQDGIQESPWQDRHGETFTFRDPHLLDPTVEYVKFSKERHIMDRTPEKLKKELEEELLLSSEDLRSHAWYHGRIPRQVSENLVQRDGDFLVRDSLSSPGNFVLTCQWKNLAQHFKINRTVLRLSEAYSRVQYQFEMESFDSIPGLVRCYVGNRRPISQQSGAIIFQPINRTVPLRCLEEHYGTSPGQAREGSLTKGRPDVAKRLSLTMGGVQAREQNLPRGNLLRNKEKSGSQPACLDHMQDRRALSLKAHQSESYLPIGCKLPPQSSGVDTSPCPNSPVFRTGSEPALSPAVVRRVSSDARAGEALRGSDSQLCPKPPPKPCKVPFLKVPSSPSAWLNSEANYCELNPAFATGCGRGAKLPSCAQGSHTELLTAKQNEAPGPRNSGVNYLILDDDDRERPWEPAAAQMEKGQWDKGEFVTPLLETVSSFRPNEFESKFLPPENKPLETAMLKRAKELFTNNDPKVIAQHVLSMDCRVARILGVSEEMRRNMGVSSGLELITLPHGHQLRLDIIERHNTMAIGIAVDILGCTGTLEDRAATLSKIIQVAVELKDSMGDLYSFSALMKALEMPQITRLEKTWTALRHQYTQTAILYEKQLKPFSKLLHEGRESTCVPPNNVSVPLLMPLVTLMERQAVTFEGTDMWEKNDQSCEIMLNHLATARFMAEAADSYRMNAERILAGFQPDEEMNEICKTEFQMRLLWGSKGAQVNQTERYEKFNQILTALSRKLEPPPVKQAEL
# B8: PTK2 (protein, UniProt Q05397 2-1052, looked up)
# Focal adhesion kinase 1: AAAYLDPNLNHTPNSSTKTHLGTGMERSPGAMERVLKVFHYFESNSEPTTWASIIRHGDATDVRGIIQKIVDSHKVKHVACYGFRLSHLRSEEVHWLHVDMGVSSVREKYELAHPPEEWKYELRIRYLPKGFLNQFTEDKPTLNFFYQQVKSDYMLEIADQVDQEIALKLGCLEIRRSYWEMRGNALEKKSNYEVLEKDVGLKRFFPKSLLDSVKAKTLRKLIQQTFRQFANLNREESILKFFEILSPVYRFDKECFKCALGSSWIISVELAIGPEEGISYLTDKGCNPTHLADFTQVQTIQYSNSEDKDRKGMLQLKIAGAPEPLTVTAPSLTIAENMADLIDGYCRLVNGTSQSFIIRPQKEGERALPSIPKLANSEKQGMRTHAVSVSETDDYAEIIDEEDTYTMPSTRDYEIQRERIELGRCIGEGQFGDVHQGIYMSPENPALAVAIKTCKNCTSDSVREKFLQEALTMRQFDHPHIVKLIGVITENPVWIIMELCTLGELRSFLQVRKYSLDLASLILYAYQLSTALAYLESKRFVHRDIAARNVLVSSNDCVKLGDFGLSRYMEDSTYYKASKGKLPIKWMAPESINFRRFTSASDVWMFGVCMWEILMHGVKPFQGVKNNDVIGRIENGERLPMPPNCPPTLYSLMTKCWAYDPSRRPRFTELKAQLSTILEEEKAQQEERMRMESRRQATVSWDSGGSDEAPPKPSRPGYPSPRSSEGFYPSPQHMVQTNHYQVSGYPGSHGITAMAGSIYPGQASLLDQTDSWNHRPQEIAMWQPNVEDSTVLDLRGIGQVLPTHLMEERLIRQQQEMEEDQRWLEKEERFLKPDVRLSRGSIDREDGSLQGPIGNQHIYQPVGKPDPAAPPKKPPRPGAPGHLGSLASLSSPADSYNEGVKLQPQEISPPPTANLDRSNDKVYENVTGLVKAVIEMSSKIQPAPPEEYVPMVKEVGLALRTLLATVDETIPLLPASTHREIEMAQKLLNSDLGELINKMKLAQQYVMTSLQQEYKKQMLTAAHALAVDAKNLLDVIDQARLKMLGQTRPH
# B9: CRKL (protein, UniProt P46109 1-303, looked up)
# Crk-like protein: MSSARFDSSDRSAWYMGPVSRQEAQTRLQGQRHGMFLVRDSSTCPGDYVLSVSENSRVSHYIINSLPNRRFKIGDQEFDHLPALLEFYKIHYLDTTTLIEPAPRYPSPPMGSVSAPNLPTAEDNLEYVRTLYDFPGNDAEDLPFKKGEILVIIEKPEEQWWSARNKDGRVGMIPVPYVEKLVRSSPHGKHGNRNSNSYGIPEPAHAYAQPQTTTPLPAVSGSPGAAITPLPSTQNGPVFAKAIQKRVPCAYDKTALALEVGDIVKVTRMNINGQWEGEVNGRKGLFPFTHVKIFDPQNPDENE
# Target: T1, EGFR-Wt (Homo sapiens, UniProt P00533)
# T1 construct: with the advantage of testing full-length integral membrane proteins; (GGGGS)2 linker-Cub (human ubiquitin aa 35-76)-GAL4(1-147)-mNFkB(364-550) (C); expressed in transfected cells
# Experiment: MaMTH EGFR-interactor screen, lentiviral preys against EGFR-wildtype bait (interaction score)
# Format: cell-based
# Details: MaMTH interaction score of prey with EGFR-Wt bait, mean
# How it was run: (§1)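 Interaction score is the luciferase fold-change versus averaged negative controls (Fabp5, Pex19, Pex7, GABBR2), with >1 called interacting. Luciferase was measured 24 h after triplicate bait transfection. This followed single-copy prey transduction (MOI ~0.3-0.4) of GAL4UAS-luciferase HEK293T cells and ≥48 h puromycin selection.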
row,Molecule,EGFR-Wt mean
1,B1,6.92
2,B2,2.22
3,B3,1.41
4,B4,9.27
5,B5,5.10
6,B6,0.87
7,B7,0.79
8,B8,4.05
9,B9,10.25

# System: EGFR-Wt
# Experiment: as above
# Format: cell-based, human
# Details: ratio of EGFR-Wt mean to EGFR-L858R mean interaction score
# How it was run: as §1
row,Molecule,Wt/L858R
1,B1,0.71
2,B2,0.71
3,B3,0.73
4,B4,0.79
5,B5,0.73
6,B6,0.76
7,B7,0.75
8,B8,0.72
9,B9,0.75

# Target: T2, EGFR-L858R (Homo sapiens, UniProt P00533, L858R)
# T2 construct: with the advantage of testing full-length integral membrane proteins; (GGGGS)2 linker-Cub (human ubiquitin aa 35-76)-GAL4(1-147)-mNFkB(364-550) (C); expressed in transfected cells
# Experiment: MaMTH EGFR-interactor screen, lentiviral preys against EGFR-L858R bait (interaction score)
# Format: cell-based
# Details: MaMTH interaction score of prey with EGFR-L858R bait
# How it was run: as §1
row,Molecule,EGFR-L858R mean
1,B1,9.74
2,B2,3.11
3,B3,1.93
4,B4,11.76
5,B5,7.03
6,B6,1.14
7,B7,1.06
8,B8,5.59
9,B9,13.65
